Entries after “also recorded” stand apart in the source; their conditions may differ.
T1: murine c-FMS (Mus musculus, UniProt P09581)
T1 construct: endogenous in cells; host or cells: primary bone marrow derived monocytes from wild-type C57BL6 mice
T1 sequence (P09581 20-977): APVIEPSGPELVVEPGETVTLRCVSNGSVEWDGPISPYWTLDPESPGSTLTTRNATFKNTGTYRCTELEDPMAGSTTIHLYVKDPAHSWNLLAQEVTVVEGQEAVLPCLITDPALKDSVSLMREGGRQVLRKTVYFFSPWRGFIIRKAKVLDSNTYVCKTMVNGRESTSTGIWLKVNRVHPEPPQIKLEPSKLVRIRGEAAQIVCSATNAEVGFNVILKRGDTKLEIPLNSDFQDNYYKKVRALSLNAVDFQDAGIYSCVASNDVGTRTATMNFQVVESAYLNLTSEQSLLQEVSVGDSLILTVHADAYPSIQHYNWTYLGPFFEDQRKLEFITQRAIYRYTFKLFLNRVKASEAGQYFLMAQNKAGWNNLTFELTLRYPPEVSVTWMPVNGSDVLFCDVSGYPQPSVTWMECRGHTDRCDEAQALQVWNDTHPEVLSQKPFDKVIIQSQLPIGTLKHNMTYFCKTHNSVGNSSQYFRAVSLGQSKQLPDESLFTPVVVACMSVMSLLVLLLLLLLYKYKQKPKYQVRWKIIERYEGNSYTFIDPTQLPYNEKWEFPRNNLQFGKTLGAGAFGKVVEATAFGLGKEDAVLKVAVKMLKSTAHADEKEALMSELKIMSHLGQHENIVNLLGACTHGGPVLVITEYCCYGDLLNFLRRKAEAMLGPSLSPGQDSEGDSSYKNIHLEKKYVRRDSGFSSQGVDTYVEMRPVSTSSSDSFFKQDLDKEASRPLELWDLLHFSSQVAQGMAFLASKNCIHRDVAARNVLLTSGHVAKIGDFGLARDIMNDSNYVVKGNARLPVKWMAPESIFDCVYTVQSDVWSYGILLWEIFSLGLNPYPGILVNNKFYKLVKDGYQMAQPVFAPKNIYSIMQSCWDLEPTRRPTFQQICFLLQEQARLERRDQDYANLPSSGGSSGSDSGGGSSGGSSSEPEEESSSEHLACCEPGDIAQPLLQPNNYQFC


Target: T1, murine c-FMS
Assay: c-FMS phosphorylation assay in BMMs (western blot)
Assay type: cell-based
Settings: for c-FMS phosphorylation level: 0.5 nM murine M-CSFWT + 1 μM variant, versus control
Method: Phosphorylation assay—The experiment was performed on two cell types, BMMs and human peripheral blood CD14^+ monocytes, as follows: (i) BMMs from wild-type C57BL6 mice were purified by flushing the bone marrow from the femur and tibia as previously described (Levaot, N., Simoncic, P. D., Dimitriou, I.D., Scoffer, A., La Rose, J., Ng, A. H. M. et al. (2011) J. Clin. Invest. 121, 3244-3257). The cells were treated with ACK red cells lysis buffer (ThermoFisher Scientific, USA) and grown in complete α-MEM growth medium (Sigma-Aldrich, USA) containing 10% fetal bovine serum (FBS) (selected to not contain LPS to prevent macrophage differentiation), penicillin, streptomycin and L-glutamine. Recombinant murine M-CSF was added at a concentration of 40 ng/ml (Peprotech, Israel) for three days at 37° C. to induce adhesion and proliferation of monocytes. Then, 7×10^5 cells were transferred into a 6-well plate with complete α-MEM and 20 ng/ml murine M-CSF and RANKL (R&D Systems, USA) for 48 h. (ii) CD 14^+ monocytes (Lonza, Switzerland) were grown in complete α-MEM medium for five days in the presence of human M-CSF (20 ng/mL). Then, 3.5×10^5 cells were transferred to a 24-well plate with complete α-MEM medium, […] human M-CSF (R&D Systems, USA) and 20 ng/ml murine RANKL for 72 h. At this point, the medium was replaced with a starvation medium (α-MEM without FBS) for 4 h. After starvation, the cells were washed with PBS and incubated in a starvation medium containing 0.5 nM murine (BMMs) or human (CD14+) M-CSF and 100 nM (CD14^+ cells) or 1 μM (BMMs) of either M-CSFC31S or M-CSFC31S,M27R for 1 min. To test the phosphorylation levels in the absence of murine M-CSFWT, we incubated 0.5, 5, 10, 50, 1000 and 5000 nM of M-CSFC31S or M-CSFC31S,M27R and 0.5,5.10 nM of human M-CSFWT with the cells. The positive control contained 0.5 nM murine (BMMs) or human (CD14^+) M-CSF, and the negative control was incubated in starvation medium without any added protein. The cells were transferred to ice, and lysis buffer (deoxycholate 0.5%, […], 10 mM NaPO4, 1 mM sodium orthovanadate, 5 mM EDTA, pH 7.4, 5 mM EGTA, pH 7.4, 100 mM NaCl, 2% Triton X-100) was added. […] The images were quantified using ImageJ. The quantified intensity values of the phosphorylated c-FMS for each sample were divided by the total c-FMS intensity, and then by the β-actin expression intensity. […]
To determine whether M-CSFC31S,M27R binds and also antagonizes c-FMS, the phosphorylation of the receptor following incubation with different M-CSF variants was evaluated. […] The cells were lysed, and the expression and phosphorylation levels of c-FMS were evaluated using western blot. C-FMS phosphorylation level was quantified and normalized. […]

c-FMS phosphorylation level (BMMs) | peak concentration of bell-shaped c-FMS phosphorylation curve (BMMs, 1 minute, without murine M-CSF) | Molecule | c-FMS phosphorylation (agonist activity) (0.5-5000 nM without murine M-CSF)
increased levels of phosphorylation |  | M-CSFM: 158 amino acid M-CSF with cysteine at position 31 replaced by serine (SEQ ID NO: 2) (protein) EEVSEYCSHMIGSGHLQSLQRLIDSQMETSSQITFEFVDQEQLKDPVCYLKKAFLLVQDIMEDTMRFRDNTPNAIAIVQLQELSLRLKSCFTKDYEEHDKACVRTFYETPLQLLEKVKNVFNETKNLLDKDWNIFSKNCNNSFAECSSQGHERQSEGS | 
 | 5 nM | M-CSFWT: wild-type human M-CSF, disulfide-bond-linked homodimer which binds and activates c-FMS (protein) EEVSEYCSHMIGSGHLQSLQRLIDSQMETSCQITFEFVDQEQLKDPVCYLKKAFLLVQDIMEDTMRFRDNTPNAIAIVQLQELSLRLKSCFTKDYEEHDKACVRTFYETPLQLLEKVKNVFNETKNLLDKDWNIFSKNCNNSFAECSSQGHERQSEGS | 
lower levels of phosphorylated c-FMS |  | M-CSFC31S,M27R: M-CSF double mutant containing both C31S and M27R; monomeric, monospecific c-FMS antagonist (protein) EEVSEYCSHMIGSGHLQSLQRLIDSQRETSSQITFEFVDQEQLKDPVCYLKKAFLLVQDIMEDTMRFRDNTPNAIAIVQLQELSLRLKSCFTKDYEEHDKACVRTFYETPLQLLEKVKNVFNETKNLLDKDWNIFSKNCNNSFAECSSQGHERQSEGS | very limited c-FMS phosphorylation at any concentration other than 5 μM; also recorded: did not exhibit phosphorylation capabilities in concentrations lower than 5 μM

— patent US11976099B2, “Compositions and methods for treatment of bone associated diseases” (THE NATIONAL INSTITUTE FOR BIOTECHNOLOGY IN THE NEGEV LTD., priority 2016, dated 2024)
